From patent publication US20220242939A1
Non-standard residues stand in square brackets, D forms with d. No end group written: not given here. Ahx = NCCCCCC(=O)O

Tests used:
[1] = target: 4E6, recombinant IgG2c antibody; test: inhibition ELISA 2nd protocol: antigen in solution varied, antibody 4E6, plate coated with G200-BSA peptide
[2] = target: 4E6, recombinant IgG2c antibody; test: inhibition ELISA: antigen in solution varied, antibody 4E6 at 0.05 µg/ml, plate coated with G200-BSA peptide

Chain of 4E6, recombinant IgG2c antibody (VH, as listed by the source limits assumed, chain 1 of 2): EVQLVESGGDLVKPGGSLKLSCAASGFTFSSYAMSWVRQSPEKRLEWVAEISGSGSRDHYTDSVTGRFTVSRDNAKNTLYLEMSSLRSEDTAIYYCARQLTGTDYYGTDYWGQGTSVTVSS
Chain of 4E6, recombinant IgG2c antibody (VL, as listed by the source limits assumed, chain 2 of 2): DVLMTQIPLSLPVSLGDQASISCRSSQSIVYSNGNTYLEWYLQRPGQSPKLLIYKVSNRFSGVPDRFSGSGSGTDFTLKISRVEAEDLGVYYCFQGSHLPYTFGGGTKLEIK

B1: G200 N-terminal neo-epitope peptide GQPLQE-Acp-C (SEQ ID NO:50) conjugated to BSA (peptide)
peptide: GQPLQE[Ahx]C
modifications: not fully specified (residue 8); printed as GQPLQE-Acp-C; also: C-terminal Cys conjugated to BSA carrier
IC50 [1]: 11.5 ng/mL | IC50 [2]: 2.9 ng/mL
